# Experimental data from paper PMC12416549 (2024).
# T1: TNFR1 (Homo sapiens, UniProt P19438)
# T1 chain: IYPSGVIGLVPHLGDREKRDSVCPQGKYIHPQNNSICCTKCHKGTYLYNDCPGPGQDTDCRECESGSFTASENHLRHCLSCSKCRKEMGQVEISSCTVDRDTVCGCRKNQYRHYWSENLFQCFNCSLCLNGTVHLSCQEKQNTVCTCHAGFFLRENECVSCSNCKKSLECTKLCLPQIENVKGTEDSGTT
# Target: T1, TNFR1
# Assay: yeast display SC50
row,Binder,apparent Kd (screen) [nM]
1,A19P (designed binder) MTLQELLREEALRRAEAEPFRYALELLAEKFPEQKEYLLDLAEEIESQIRSLSGVDVEDVRKFLDKEWAWVKELLAEHPAELAEVEAARAARLAELRAEVEAKVAA,9.41
2,V85G (designed binder) MTLQELLREEALRRAEAEAFRYALELLAEKFPEQKEYLLDLAEEIESQIRSLSGVDVEDVRKFLDKEWAWVKELLAEHPAELAEGEAARAARLAELRAEVEAKVAA,0.718
3,W70V (designed binder) MTLQELLREEALRRAEAEAFRYALELLAEKFPEQKEYLLDLAEEIESQIRSLSGVDVEDVRKFLDKEWAVVKELLAEHPAELAEVEAARAARLAELRAEVEAKVAA,20.2
4,E67A (designed binder) MTLQELLREEALRRAEAEAFRYALELLAEKFPEQKEYLLDLAEEIESQIRSLSGVDVEDVRKFLDKAWAWVKELLAEHPAELAEVEAARAARLAELRAEVEAKVAA,12.5
5,G54L (designed binder) MTLQELLREEALRRAEAEAFRYALELLAEKFPEQKEYLLDLAEEIESQIRSLSLVDVEDVRKFLDKEWAWVKELLAEHPAELAEVEAARAARLAELRAEVEAKVAA,16.7
6,L12R (designed binder) MTLQELLREEARRRAEAEAFRYALELLAEKFPEQKEYLLDLAEEIESQIRSLSGVDVEDVRKFLDKEWAWVKELLAEHPAELAEVEAARAARLAELRAEVEAKVAA,0.49
7,Q48M (designed binder) MTLQELLREEALRRAEAEAFRYALELLAEKFPEQKEYLLDLAEEIESMIRSLSGVDVEDVRKFLDKEWAWVKELLAEHPAELAEVEAARAARLAELRAEVEAKVAA,1.16
8,L3D (designed binder) MTDQELLREEALRRAEAEAFRYALELLAEKFPEQKEYLLDLAEEIESQIRSLSGVDVEDVRKFLDKEWAWVKELLAEHPAELAEVEAARAARLAELRAEVEAKVAA,0.718
9,K72T (designed binder) MTLQELLREEALRRAEAEAFRYALELLAEKFPEQKEYLLDLAEEIESQIRSLSGVDVEDVRKFLDKEWAWVTELLAEHPAELAEVEAARAARLAELRAEVEAKVAA,0.718
10,E5V (designed binder) MTLQVLLREEALRRAEAEAFRYALELLAEKFPEQKEYLLDLAEEIESQIRSLSGVDVEDVRKFLDKEWAWVKELLAEHPAELAEVEAARAARLAELRAEVEAKVAA,0.593
11,E67I (designed binder) MTLQELLREEALRRAEAEAFRYALELLAEKFPEQKEYLLDLAEEIESQIRSLSGVDVEDVRKFLDKIWAWVKELLAEHPAELAEVEAARAARLAELRAEVEAKVAA,6.43
12,D59C (designed binder) MTLQELLREEALRRAEAEAFRYALELLAEKFPEQKEYLLDLAEEIESQIRSLSGVDVECVRKFLDKEWAWVKELLAEHPAELAEVEAARAARLAELRAEVEAKVAA,13.8
13,P32K (designed binder) MTLQELLREEALRRAEAEAFRYALELLAEKFKEQKEYLLDLAEEIESQIRSLSGVDVEDVRKFLDKEWAWVKELLAEHPAELAEVEAARAARLAELRAEVEAKVAA,0.653
14,M1N (designed binder) NTLQELLREEALRRAEAEAFRYALELLAEKFPEQKEYLLDLAEEIESQIRSLSGVDVEDVRKFLDKEWAWVKELLAEHPAELAEVEAARAARLAELRAEVEAKVAA,0.49
15,E16A (designed binder) MTLQELLREEALRRAAAEAFRYALELLAEKFPEQKEYLLDLAEEIESQIRSLSGVDVEDVRKFLDKEWAWVKELLAEHPAELAEVEAARAARLAELRAEVEAKVAA,0.539
16,D56Y (designed binder) MTLQELLREEALRRAEAEAFRYALELLAEKFPEQKEYLLDLAEEIESQIRSLSGVYVEDVRKFLDKEWAWVKELLAEHPAELAEVEAARAARLAELRAEVEAKVAA,2.25
17,V57C (designed binder) MTLQELLREEALRRAEAEAFRYALELLAEKFPEQKEYLLDLAEEIESQIRSLSGVDCEDVRKFLDKEWAWVKELLAEHPAELAEVEAARAARLAELRAEVEAKVAA,0.539
18,L64Y (designed binder) MTLQELLREEALRRAEAEAFRYALELLAEKFPEQKEYLLDLAEEIESQIRSLSGVDVEDVRKFYDKEWAWVKELLAEHPAELAEVEAARAARLAELRAEVEAKVAA,0.49

row,Binder,apparent Kd (screen) [nM]
1,L3F (designed binder) MTFQELLREEALRRAEAEAFRYALELLAEKFPEQKEYLLDLAEEIESQIRSLSGVDVEDVRKFLDKEWAWVKELLAEHPAELAEVEAARAARLAELRAEVEAKVAA,2.25
2,R8H (designed binder) MTLQELLHEEALRRAEAEAFRYALELLAEKFPEQKEYLLDLAEEIESQIRSLSGVDVEDVRKFLDKEWAWVKELLAEHPAELAEVEAARAARLAELRAEVEAKVAA,0.869
3,K62H (designed binder) MTLQELLREEALRRAEAEAFRYALELLAEKFPEQKEYLLDLAEEIESQIRSLSGVDVEDVRHFLDKEWAWVKELLAEHPAELAEVEAARAARLAELRAEVEAKVAA,0.718
4,D40A (designed binder) MTLQELLREEALRRAEAEAFRYALELLAEKFPEQKEYLLALAEEIESQIRSLSGVDVEDVRKFLDKEWAWVKELLAEHPAELAEVEAARAARLAELRAEVEAKVAA,0.539
5,M1H (designed binder) HTLQELLREEALRRAEAEAFRYALELLAEKFPEQKEYLLDLAEEIESQIRSLSGVDVEDVRKFLDKEWAWVKELLAEHPAELAEVEAARAARLAELRAEVEAKVAA,0.539
6,R14Y (designed binder) MTLQELLREEALRYAEAEAFRYALELLAEKFPEQKEYLLDLAEEIESQIRSLSGVDVEDVRKFLDKEWAWVKELLAEHPAELAEVEAARAARLAELRAEVEAKVAA,0.49
7,W68Q (designed binder) MTLQELLREEALRRAEAEAFRYALELLAEKFPEQKEYLLDLAEEIESQIRSLSGVDVEDVRKFLDKEQAWVKELLAEHPAELAEVEAARAARLAELRAEVEAKVAA,5.31
8,E10C (designed binder) MTLQELLRECALRRAEAEAFRYALELLAEKFPEQKEYLLDLAEEIESQIRSLSGVDVEDVRKFLDKEWAWVKELLAEHPAELAEVEAARAARLAELRAEVEAKVAA,16.7
9,L26V (designed binder) MTLQELLREEALRRAEAEAFRYALEVLAEKFPEQKEYLLDLAEEIESQIRSLSGVDVEDVRKFLDKEWAWVKELLAEHPAELAEVEAARAARLAELRAEVEAKVAA,0.79
10,R61L (designed binder) MTLQELLREEALRRAEAEAFRYALELLAEKFPEQKEYLLDLAEEIESQIRSLSGVDVEDVLKFLDKEWAWVKELLAEHPAELAEVEAARAARLAELRAEVEAKVAA,0.539
11,E29F (designed binder) MTLQELLREEALRRAEAEAFRYALELLAFKFPEQKEYLLDLAEEIESQIRSLSGVDVEDVRKFLDKEWAWVKELLAEHPAELAEVEAARAARLAELRAEVEAKVAA,0.653
12,L7R (designed binder) MTLQELRREEALRRAEAEAFRYALELLAEKFPEQKEYLLDLAEEIESQIRSLSGVDVEDVRKFLDKEWAWVKELLAEHPAELAEVEAARAARLAELRAEVEAKVAA,8.56
13,L12Q (designed binder) MTLQELLREEAQRRAEAEAFRYALELLAEKFPEQKEYLLDLAEEIESQIRSLSGVDVEDVRKFLDKEWAWVKELLAEHPAELAEVEAARAARLAELRAEVEAKVAA,0.79
14,E73W (designed binder) MTLQELLREEALRRAEAEAFRYALELLAEKFPEQKEYLLDLAEEIESQIRSLSGVDVEDVRKFLDKEWAWVKWLLAEHPAELAEVEAARAARLAELRAEVEAKVAA,0.653
15,A15Q (designed binder) MTLQELLREEALRRQEAEAFRYALELLAEKFPEQKEYLLDLAEEIESQIRSLSGVDVEDVRKFLDKEWAWVKELLAEHPAELAEVEAARAARLAELRAEVEAKVAA,0.718
16,A98Q (designed binder) MTLQELLREEALRRAEAEAFRYALELLAEKFPEQKEYLLDLAEEIESQIRSLSGVDVEDVRKFLDKEWAWVKELLAEHPAELAEVEAARAARLAELRQEVEAKVAA,0.653
17,L41F (designed binder) MTLQELLREEALRRAEAEAFRYALELLAEKFPEQKEYLLDFAEEIESQIRSLSGVDVEDVRKFLDKEWAWVKELLAEHPAELAEVEAARAARLAELRAEVEAKVAA,0.79
